Experimental data from the supplement of paper PMC7877785.
± gives the uncertainty stated by the source.

Assay: self-splicing fitness, log relative to wild type (ln ratio); higher = more splicing; Tetrahymena group I intron in knt gene, E. coli kanamycin selection, DiMSum; sequences stand for … in CUCUCU…GGAGGGAAAAGUUAUCAGGCAUGCACCUGGUAGCUAGUCUUUAAACCAAUAGAUUGCAUCGGUUUAAAAGGCAAGACCGUCAAAUUGCGGGAAAGGGGUCAACAGCCGUUCAGUACCAAGUCUCAGGGGAAACUUUGAGAUGGCCUUGCAAAGGGUAUGGUAAUAAGCUGACGGACAUGGUCCUAACCACGCAGCCAAGUCCUAAGUCAACAGAUCUUCUGUUGAUAUGGAUGCAGUUCACAGACUAAAUGUCGGUCGGGGAAGAUGUAUUCUUCUCAUAAGAUAUAGUCGGACCUCUCCUUAAUGGGAGCUAGCGGAUGAAGUGAUGCAACACUGGAGCCGCUGGGAACUAAUUUGUAUGCGAAAGUAUAUUGAUUAGUUUUGGAGUACUCGUGGUCG
How it was run: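 Six replicate transformations of E. coli BL21(DE3) with a pET-22b(+) library were grown overnight at 37°C or 30°C. The library randomised all eight P1ex-region intron nucleotides, the intron lying in the knt kanamycin-resistance gene, and plates were LB agar with or without 25 μg/mL kanamycin plus 100 μg/mL carbenicillin, 50 μM IPTG and 0.2% rhamnose. Pooled colonies were amplicon-sequenced on an Illumina HiSeq 2500, and fitness is the DiMSum error-weighted combination of wild-type-normalised replicate fold changes, kanamycin versus none.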

Row | Sequence | self-splicing fitness (ln) (30 °C) | self-splicing fitness (ln) (37 °C)
1 | CUUCAGCAAUAUUACGCCAG | -0.975 ± 0.11 | -0.132 ± 0.17
2 | CUUCAGCAAUAUUACGCGGA | -1.83 ± 0.21 | -2.74 ± 0.3
3 | CUUCAGCAAUAUUACGCGUG | -0.775 ± 0.08 | -0.978 ± 0.1
4 | CUUCAGCAAUAUUACGGAGG | -3.09 ± 0.21 | -2.09 ± 0.26
5 | CUUCAGCAAUAUUACGGCAU | -2.78 ± 0.17 | -2.1 ± 0.2
6 | CUUCAGCAAUAUUACGGGGC | -2.93 ± 0.22 | -2.21 ± 0.34
7 | CUUCAGCAAUAUUACGGUGG | -2.39 ± 0.12 | -1.18 ± 0.15
8 | CUUCAGCAAUAUUACGGUUC | -3.39 ± 0.2 | -1.69 ± 0.18
9 | CUUCAGCAAUAUUACGUAAG | -0.469 ± 0.084 | -0.514 ± 0.1
10 | CUUCAGCAAUAUUACGUACU | -4.13 ± 0.19 | -2.8 ± 0.19
11 | CUUCAGCAAUAUUACGUCUC | -3.17 ± 0.2 | -3.03 ± 0.2
12 | CUUCAGCAAUAUUACGUGGG | -3.96 ± 0.16 | -2.38 ± 0.19
13 | CUUCAGCAAUAUUACGUGUA | -3.11 ± 0.13 | -3.22 ± 0.21
14 | CUUCAGCAAUAUUACGUUGC | -4.23 ± 0.3 | -3.04 ± 0.25
15 | CUUGAGCAAUAUUACGAACU | -4.03 ± 0.46 | -2.09 ± 0.32
16 | CUUGAGCAAUAUUACGAAGU | -3.67 ± 0.33 | -3.38 ± 0.35
17 | CUUGAGCAAUAUUACGACAG | -1.19 ± 0.1 | -0.98 ± 0.14
18 | CUUGAGCAAUAUUACGAGAU | -3.68 ± 0.37 | -0.585 ± 0.15
19 | CUUGAGCAAUAUUACGAUAC | -3.57 ± 0.42 | –
20 | CUUGAGCAAUAUUACGCACC | – | -1.68 ± 0.4
21 | CUUGAGCAAUAUUACGCGGC | -2.63 ± 0.27 | -1.43 ± 0.43
22 | CUUGAGCAAUAUUACGCGUA | -3.18 ± 0.35 | -2.31 ± 0.27

Row | Sequence | self-splicing fitness (ln) (30 °C) | self-splicing fitness (ln) (37 °C)
23 | CUUGAGCAAUAUUACGCUAG | -3.17 ± 0.28 | -2.48 ± 0.27
24 | CUUGAGCAAUAUUACGCUCA | -1.12 ± 0.32 | -2.33 ± 0.29
25 | CUUGAGCAAUAUUACGCUUG | – | -1.83 ± 0.41
26 | CUUGAGCAAUAUUACGGCAC | -2.5 ± 0.34 | -2.71 ± 0.39
27 | CUUGAGCAAUAUUACGGGUA | -3.78 ± 0.33 | -2.53 ± 0.24
28 | CUUGAGCAAUAUUACGGGUU | -2.91 ± 0.32 | -2.92 ± 0.28
29 | CUUGAGCAAUAUUACGGUUG | -2.28 ± 0.097 | -1.95 ± 0.14
30 | CUUGAGCAAUAUUACGUGGA | -2.88 ± 0.24 | -3.25 ± 0.33
31 | CUUGAGCAAUAUUACGUUAC | -3 ± 0.33 | -2.44 ± 0.32
32 | CUUGAGCAAUAUUACGUUGA | -3.17 ± 0.27 | -1.97 ± 0.22
33 | CUUUAGCAAUAUUACGACGU | -3.69 ± 0.38 | -1.86 ± 0.3
34 | CUUUAGCAAUAUUACGAUCG | 0.191 ± 0.17 | 0.476 ± 0.22
35 | CUUUAGCAAUAUUACGAUCU | -3.2 ± 0.36 | -2.48 ± 0.45
36 | CUUUAGCAAUAUUACGCAAA | -2.51 ± 0.21 | -1.34 ± 0.2
37 | CUUUAGCAAUAUUACGCCGU | -2.68 ± 0.41 | –
38 | CUUUAGCAAUAUUACGCGGG | -3.35 ± 0.3 | -2.31 ± 0.32
39 | CUUUAGCAAUAUUACGCUGU | -2.75 ± 0.25 | -2.35 ± 0.37
40 | CUUUAGCAAUAUUACGGAGA | -2.74 ± 0.49 | –
41 | CUUUAGCAAUAUUACGGAUA | -3.21 ± 0.42 | -2.7 ± 0.34
42 | CUUUAGCAAUAUUACGGGCU | – | -1.66 ± 0.41
43 | CUUUAGCAAUAUUACGGGGG | -4.05 ± 0.46 | -2.65 ± 0.45
44 | CUUUAGCAAUAUUACGGUAC | -2.49 ± 0.28 | -3.08 ± 0.47
